Data from US20210253718A1, “FRIZZLED5 PROTEIN-BINDING AGENTS” (Modmab Therapeutics Corporation, priority 2016, published 2021).

What was measured:
FZD3 CRD = target: T1, FZD3 CRD (Homo sapiens, UniProt Q9NPG1); experiment: Flow cytometry of anti-FZD5 Fab binding to CHO cells overexpressing Frizzled CRD
T1 construct: CRD of FZD1, FZD2, FZD3, FZD4, FZD5, FZD6, FZD7, FZD8, FZD9 or FZD10; GPI anchor signal (C); expressed in transfected cells; host or cells: CHO cells, lentiviral pLenti-puro
T1 sequence (Q9NPG1 23-136 limits assumed): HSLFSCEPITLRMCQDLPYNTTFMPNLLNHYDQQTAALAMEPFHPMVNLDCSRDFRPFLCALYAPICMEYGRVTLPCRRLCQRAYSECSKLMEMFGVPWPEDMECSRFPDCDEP
Method: (§1) Plasmids: pLCKO lentiviral vector used for knockout (TKO) library construction and expression of individual gRNAs was constructed as described previously (Hart et al., 2015). Briefly, single guide RNA (sgRNA) scaffold was amplified from px330 (Addgene 42230) and cloned into pLKO.TRC005 lentiviral vector (Broad Institute, Cambridge, Mass.) using AgeI/EcoRI restriction sites. BfuAI sites were added at the 5′ end of the sgRNA scaffold for cloning the TKO library or individual gRNA target sequences. Lenti Cas9-2A-BsdR vector used to generate Cas9 stable expression cell lines was constructed as described previously (Hart et al., 2015). Briefly, lentiCRISPR pXPR_001 (Addgene 49535) was modified through removal of the sgRNA scaffold region through NdeI/EcoRI digest and blunt ends generation using Large Klenow Fragment (NEB). 2A-puro was replaced with 2A-BsdR by PCR using the NheI/MluI sites. Each of the 10 human Frizzled cysteine rich domains (CRDs) were cloned into the lentiviral expression plasmid pLenti-puro in the following cassette: FZD_CRD-MYC-GPI.
(§2) Flow cytometry: Primary staining of cells was performed by treatment with 200 nM Frizzled profiler Fab. Alexa Fluor 488 AffiniPure F(ab′)2 was used as the secondary antibody (Jackson ImmunoResearch #109-546-097). c-Myc (9E10) IgG1 (primary antibody, Santa Cruz, lot #D0306) and Alexa Fluor 488 IgG (secondary antibody, Life technologies, lot #1458649) were used as controls. Dead cells were excluded by staining with Fixable Viability Dye eFluor 660 (eBioscience, catalogue number 65-0864). All reagents were used as per manufacturer's instructions. Flow cytometry was performed on a BD FACSCanto II flow cytometer (BD Biosciences), and data were analyzed with FlowJo software (FlowJo, LLC).
(§3) To confirm that the FZD5-WNT7B circuit is not driven simply by expression and rule out the possibility of a disconnect between RNA and protein levels for the Wnt receptors in HPAF-II cells, a panel of recombinant Fabs were generated, alternatively referred to herein as ‘Frizzled profiler’, that can detect and discriminate all but one of the ten Frizzled receptors. […] To characterize the binding specificity of these Fabs on cells, a panel of 10 CHO cell lines was generated, each expressing the CRD domain of a different myc-tagged Frizzled family member anchored at the plasma membrane through a GPI anchor (CHO-myc-FZDGPI). Despite the high sequence identity between Frizzled family members (FIG. 7A, FIG. 7B), selective Fabs were identified for FZD4, FZD5, FZD6 and FZD10 as assessed by immunofluorescence and flow cytometry (FIG. 7D and FIG. 8). […] The FZD8 CRD is most homologous to that of FZD5 (FIG. 7B). These Fabs can be used to discriminate expression of FZD1, FZD2, FZD4, FZD5, FZD6, FZD7, FZD8, FZD9 and FZD10 (FIG. 7D and FIG. 8). The ‘Frizzled profiler’ therefore consists of 10 different Fabs that can be used to discriminate expression of 9 different Frizzled family members. The Frizzled profiler was then used to confirm that HPAF-II cells express FZD1, FZD5, FZD6 and possibly FZD8 (FIG. 7E).
(§4) The binding of anti-FZD5 Fabs to cell surface-expressed Frizzled protein was further determined for each member of the Frizzled family via flow cytometry and immunofluorescence analysis of a panel of 10 CHO cell lines, each ectopically over-expressing the extracellular cysteine-rich domain (CRD) of a different Frizzled protein family member.

FZD8 CRD [1] = target: T2, FZD8 CRD (Homo sapiens, UniProt Q9H461); experiment: as above
T2 construct: K31-D155; GPI anchor signal (C); expressed in transfected cells; host or cells: CHO cells, lentiviral pLenti-puro
T2 sequence (Q9H461 31-155): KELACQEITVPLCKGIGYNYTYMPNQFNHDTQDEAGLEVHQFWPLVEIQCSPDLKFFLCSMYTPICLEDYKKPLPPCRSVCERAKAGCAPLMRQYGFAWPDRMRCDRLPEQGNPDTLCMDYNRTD
Method: as §1, §2, §3, §4

FZD2 CRD [2] = target: T3, FZD2 CRD (Homo sapiens, UniProt Q14332); experiment: as above
T3 construct: D35-P161; GPI anchor signal (C); expressed in transfected cells; host or cells: CHO cells, lentiviral pLenti-puro
Method: as §1, §2, §3, §4

FZD8 CRD [3] = target: T2, FZD8 CRD; experiment: Immunofluorescence of anti-FZD5 Fab binding to CHO cells overexpressing Frizzled CRD; design: key: −: no binding; +: very weak binder; ++: weak binder; +++: good binder; ++++: very good binder
Method: as §1, §3, §4

FZD6 CRD = target: T4, FZD6 CRD (Homo sapiens, UniProt O60353); experiment: as above; design: key: −: no binding; +: very weak binder; ++: weak binder; +++: good binder; ++++: very good binder
T4 construct: S20-P146; GPI anchor signal (C); expressed in transfected cells; host or cells: CHO cells, lentiviral pLenti-puro
T4 sequence (O60353 20-146): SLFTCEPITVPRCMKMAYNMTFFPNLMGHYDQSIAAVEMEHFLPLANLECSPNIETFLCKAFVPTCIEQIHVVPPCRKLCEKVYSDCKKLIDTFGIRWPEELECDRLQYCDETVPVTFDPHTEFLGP
Method: as §1, §3, §4

FZD7 CRD = target: T5, FZD7 CRD (Homo sapiens, UniProt O75084); experiment: as above; design: key: −: no binding; +: very weak binder; ++: weak binder; +++: good binder; ++++: very good binder
T5 construct: D45-S169; GPI anchor signal (C); expressed in transfected cells; host or cells: CHO cells, lentiviral pLenti-puro
Method: as §1, §3, §4

FZD10 CRD = target: T6, FZD10 CRD (Homo sapiens, UniProt Q9ULW2); experiment: as above; design: key: −: no binding; +: very weak binder; ++: weak binder; +++: good binder; ++++: very good binder
T6 construct: 30-156; GPI anchor signal (C); expressed in transfected cells; host or cells: CHO cells, lentiviral pLenti-puro
T6 sequence (Q9ULW2 30-156): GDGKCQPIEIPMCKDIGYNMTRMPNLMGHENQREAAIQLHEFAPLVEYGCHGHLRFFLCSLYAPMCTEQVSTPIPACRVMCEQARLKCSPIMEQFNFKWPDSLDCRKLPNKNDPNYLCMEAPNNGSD
Method: as §1, §3, §4

FZD2 CRD [4] = target: T3, FZD2 CRD; experiment: as above; design: key: −: no binding; +: very weak binder; ++: weak binder; +++: good binder; ++++: very good binder
Method: as §1, §3, §4

Median fluorescence, Frizzled CRD overexpressed on CHO cells: FZD3 (FZD3 CRD): 3.49 | Median fluorescence, Frizzled CRD overexpressed on CHO cells: FZD8 (FZD8 CRD [1]): 7.43 | Median fluorescence, Frizzled CRD overexpressed on CHO cells: FZD2 (FZD2 CRD [2]): 4.7 | Immunofluorescence binding, Frizzled CRD overexpressed on CHO cells: FZD8 (FZD8 CRD [3]): − | Immunofluorescence binding, Frizzled CRD overexpressed on CHO cells: FZD6 (FZD6 CRD): − | Immunofluorescence binding, Frizzled CRD overexpressed on CHO cells: FZD7 (FZD7 CRD): + | Immunofluorescence binding, Frizzled CRD overexpressed on CHO cells: FZD10 (FZD10 CRD): − | Immunofluorescence binding, Frizzled CRD overexpressed on CHO cells: FZD2 (FZD2 CRD [4]): +
Substance: Fab-2931: anti-FZD5 Fab with antibody variable region Fv-2931; CDR SEQ ID NOs: 35, 36, 70, 102, 146, 176 (CDR 1 QSVSSA; CDR 2 SAS; CDR 3 QQSSYSLIT; CDR 4 GFNLSYSS; CDR 5 ISPYSGST; CDR 6 ARGSYWYVGGGWWVSGHGGMDY)
